Measurements from US20250368707A1 (UNIVERSITY OF MIAMI, published 2025).

Target: the molecule itself
Test: SEC-MALS under native conditions in PBS; self-association (non-covalent dimer)

B1: mouse IL-2-10/CD25 (mIL2-linker-CD25-linker-IL10) (other)
chain: APTSSPTSSPTSSSTAEAQQQQQQQQHLEQLLMDLQELLSRMENYRNLKLPRMLTFKFYLPKQATELKDLQCLEDELGPLRHVLDLTQSKSFQLEDAENFISNIRVTVVKLKGSDNTFECQFDDESATVVDFLRRWIAFCQSIISTSPQGGGSGGGSGGGSELCLYDPPEVPNATFKALSYKNGTILNCECKRGFRRLKELVYMRCLGNSWSSNCQCTSNSHDKSRKQVTAQLEHQKEQQTTTDMQKPTQSMHQENLTGHCREPPPWKHEDSKRIYHFVEGQSVHYECIPGYKALQRGPAISICKMKCGKTGWTQPQLTCVDEREHHRFLASEESQGSRNSSPESETSCPITTTDFPQPTETTAMTETFVLTMEYKGGGSGGGSGGGSSRGQYSREDNNCTHFPVGQSHMLLELRTAFSQVKTFFQTKDQLDNILLTDSLMQDFKGYLGCQALSEMIQFYLVEVMPQAEKHGPEIKEHLNSLGEKLKTLRMRLRRCHRFLPCENKSKAVEQVKSDFNKLQDQGVYKAMNEFDIFINCIEAYMMIKMKSGGHHHHHH
notes: Under native conditions it is predominately a non-covalent dimer; also called mIL-2-10/CD25; mIL2-10/CD25
B1: binds.
